# Data taken from patent US20250066499A1 (SUNSHINE GUOJIAN PHARMACEUTICAL SHANGHAI, published 2025).
# Substitutions are numbered along the chain they refer to.
# T1: CD73-ND-D142A (human, UniProt P21589 27-317)
# T1 construct: Alanine mutant of CD73-ND
# T1 sequence: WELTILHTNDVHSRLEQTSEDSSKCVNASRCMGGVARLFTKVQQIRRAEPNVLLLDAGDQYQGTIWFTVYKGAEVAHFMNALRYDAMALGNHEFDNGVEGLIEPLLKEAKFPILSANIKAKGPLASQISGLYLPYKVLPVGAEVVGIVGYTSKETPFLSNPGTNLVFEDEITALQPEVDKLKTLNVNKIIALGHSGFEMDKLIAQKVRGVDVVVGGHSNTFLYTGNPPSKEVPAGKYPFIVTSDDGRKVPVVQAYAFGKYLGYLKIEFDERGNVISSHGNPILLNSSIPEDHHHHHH
# T2: CD73-ND-L184A (human, UniProt P21589 27-317)
# T2 construct: Alanine mutant of CD73-ND
# T2 sequence: T1 sequence with A142D, L184A
# T3: CD73-ND-P139A (human, UniProt P21589 27-317)
# T3 construct: Alanine mutant of CD73-ND
# T3 sequence: T1 sequence with P139A, A142D
# T4: CD73-ND-his (human, UniProt P21589 27-317)
# T4 construct: Biotinylated and captured on streptavidin in the ELISA
# T4 sequence: T1 sequence with A142D
# T5: CD73-ND-L138A (human, UniProt P21589 27-317)
# T5 construct: Alanine mutant of CD73-ND
# T5 sequence: T1 sequence with L138A, A142D
# T6: CD73-ND-L133A (human, UniProt P21589 27-317)
# T6 construct: Alanine mutant of CD73-ND
# T6 sequence: T1 sequence with L133A, A142D
# B1: 48A11-HuV33 (antibody, human IgG4, V domains shown)
# VH: QVQLVQSGAEVKKPGASVKVSCKASGYTFTSYWMHWVRQAPGQGLEWIGEINPSIGRTNYNEKFKSRVTLTRDTSTSTAYMELSSLRSEDTAVYYCARRVYGTMDYWGQGTLVTVSS
# VL: DIQMTQSPSSLSASVGDRVTITCKASQDINSYLSWFQQKPGKSPKLLIYRANIWVDGVPSRFSGSGSGQDYTFTISSLQPEDIATYYCLQYDELYTFGQGTKVEIK
# notes: Humanized
# Assays:
# CD73-ND-D142A = target: T1, CD73-ND-D142A; experiment: ELISA; decline multiple of EC50 against CD73-ND
# Protocol: (§1) The ELISA plates were coated with SA protein diluted to 1.5 μg/mL in coating buffer (50 mM carbonate coating buffer, pH 9.6) and incubated overnight at 4° C. The supernatant was discarded, and the plates were washed three times with PBST. Then, 5% skimmed milk powder prepared with PBS was added for blocking and the plates were incubated for 2 h at 37° C. After washing the plates once with PBST, CD73-biotin protein (prepared by biotinylating CD73-His protein according to the EZ-Link NHS-Biotin Reagent instructions) was diluted to 0.5 μg/mL and added at 100 μL/well for incubation at room temperature for 1 h. The plates were washed three times with PBST, and the prepared murine-derived monoclonal antibodies against human CD73 were serially diluted with 1% BSA buffer prepared with PBST and added to the ELISA plates at 100 μl/well. The plates were incubated at 37° C. for 1 h. After washing the plates three times with PBST, HRP-labeled goat anti-mouse IgG secondary antibody was added and the plates were incubated for 30 min at 37° C. After washing the plates three times with PBST, the residual droplets were patted dry on absorbent paper as much as possible. Then, 100 μl of TMB color developing solution was added to each well, and the plates were incubated in the dark at room temperature for 5 min for color development. Subsequently, 50 μl of 2M H₂SO₄ stop solution was added to each well to terminate the substrate reaction. The OD values were read at 450 nm using a multimode microplate reader to analyze the binding ability of the tested antibodies to the target antigen human CD73-His.
# (§2) Referring to the experimental method in Example 3, the affinity of 48A11-HuV33 for various mutant proteins of CD73-ND was determined. The SA protein was diluted to 1 μg/mL for coating the ELISA plates, and the biotinylated CD73 protein (CD73-biotin) was used at a concentration of 0.1 μg/mL.
# CD73-ND-L184A = target: T2, CD73-ND-L184A; experiment: ELISA; decline multiple of EC50 against CD73-ND
# Protocol: as §1, §2
# CD73-ND-P139A = target: T3, CD73-ND-P139A; experiment: ELISA; decline multiple of EC50 against CD73-ND
# Protocol: as §1, §2
# CD73-ND-his = target: T4, CD73-ND-his; experiment: ELISA; decline multiple of EC50 against CD73-ND
# Protocol: as §1, §2
# CD73-ND-L138A = target: T5, CD73-ND-L138A; experiment: ELISA, biotinylated antigen on streptavidin plate
# Protocol: as §1, §2
# CD73-ND-L133A = target: T6, CD73-ND-L133A; experiment: ELISA, biotinylated antigen on streptavidin plate
# Protocol: as §1, §2
binder,measurement,setting,value
B1,Ratio(EC50),CD73-ND-D142A,1.9 fold
same,Ratio(EC50),CD73-ND-L184A,3.4 fold
same,Ratio(EC50),CD73-ND-P139A,24.4 fold
same,Ratio(EC50),CD73-ND-his,1 fold
same,EC50,CD73-ND-L138A,0.182 nM
same,EC50,CD73-ND-L133A,25.8 nM
